# Measured values taken from patent US20140030416A1.
# Experiments:
# Assay in all cases: cell-based or functional assay
# [1] = target: Trypsin-like protease (TL1) from Fusarium oxysporum (Fusarium oxysporum) (UniProt P35049)
# [2] = target: bovine trypsin (bovine) (UniProt P00760)
# [3] = target: porcine trypsin (porcine) (UniProt P00761)
# Sequence of UniProt P35049 (P35049 25-248 limits assumed): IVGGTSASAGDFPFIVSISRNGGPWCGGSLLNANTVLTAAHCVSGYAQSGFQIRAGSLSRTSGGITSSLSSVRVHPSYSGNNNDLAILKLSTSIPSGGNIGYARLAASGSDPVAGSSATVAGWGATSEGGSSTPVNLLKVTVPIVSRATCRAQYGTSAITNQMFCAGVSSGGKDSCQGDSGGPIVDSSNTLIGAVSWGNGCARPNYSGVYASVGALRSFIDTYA
substance,measurement,setting,value
"Bowman-Birk inhibitor (Cat # T-9777, Sigma-Aldrich) (from UniProt P01055 40-110)",% residual activity at 0.00048 mg/ml Bowman-Birk inhibitor,[1],117%
same,% residual activity at 0.00097 mg/ml Bowman-Birk inhibitor,[1],111%
same,% residual activity at 0.00195 mg/ml Bowman-Birk inhibitor,[1],103%
same,% residual activity at 0.0039 mg/ml Bowman-Birk inhibitor,[1],109%
same,% residual activity at 0.0078 mg/ml Bowman-Birk inhibitor,[1],82%
same,% residual activity at 0.0156 mg/ml Bowman-Birk inhibitor,[1],61%
same,% residual activity at 0.0313 mg/ml Bowman-Birk inhibitor,[1],32%
same,% residual activity at 0.0625 mg/ml Bowman-Birk inhibitor,[1],13%
same,% residual activity at 0.125 mg/ml Bowman-Birk inhibitor,[1],5.8%
same,% residual activity at 0.25 mg/ml Bowman-Birk inhibitor,[1],2.2%
same,% residual activity at 0.5 mg/ml Bowman-Birk inhibitor,[1],0.8%
same,% residual activity at 0.00048 mg/ml Bowman-Birk inhibitor,[2],6.9%
same,% residual activity at 0.00097 mg/ml Bowman-Birk inhibitor,[2],5.3%
same,% residual activity at 0.00195 mg/ml Bowman-Birk inhibitor,[2],0.1%
same,% residual activity at 0.0039 mg/ml Bowman-Birk inhibitor,[2],-0.4%
same,% residual activity at 0.0078 mg/ml Bowman-Birk inhibitor,[2],0%
same,% residual activity at 0.0156 mg/ml Bowman-Birk inhibitor,[2],-1.5%
same,% residual activity at 0.0313 mg/ml Bowman-Birk inhibitor,[2],0.1%
same,% residual activity at 0.0625 mg/ml Bowman-Birk inhibitor,[2],0%
same,% residual activity at 0.125 mg/ml Bowman-Birk inhibitor,[2],0%
same,% residual activity at 0.25 mg/ml Bowman-Birk inhibitor,[2],0%
same,% residual activity at 0.5 mg/ml Bowman-Birk inhibitor,[2],0%
same,% residual activity at 0.00048 mg/ml Bowman-Birk inhibitor,[3],11%
same,% residual activity at 0.00097 mg/ml Bowman-Birk inhibitor,[3],9.4%
same,% residual activity at 0.00195 mg/ml Bowman-Birk inhibitor,[3],8.3%
same,% residual activity at 0.0039 mg/ml Bowman-Birk inhibitor,[3],6.2%
same,% residual activity at 0.0078 mg/ml Bowman-Birk inhibitor,[3],3.2%
same,% residual activity at 0.0156 mg/ml Bowman-Birk inhibitor,[3],2.2%
same,% residual activity at 0.0313 mg/ml Bowman-Birk inhibitor,[3],1%
same,% residual activity at 0.0625 mg/ml Bowman-Birk inhibitor,[3],6.4%
same,% residual activity at 0.125 mg/ml Bowman-Birk inhibitor,[3],0.2%
same,% residual activity at 0.25 mg/ml Bowman-Birk inhibitor,[3],0.1%
same,% residual activity at 0.5 mg/ml Bowman-Birk inhibitor,[3],0.1%
